Assays:
[1] = target: T1, nucleosome with the 185-bp DNA fragment (human, UniProt P0C0S8 2-130; P62807 2-124; P68431 2-136; P62805 2-103); assay: MST; 185-bp nucleosome
[2] = target: T1, nucleosome with the 185-bp DNA fragment; assay: nucleosome with 185-bp DNA

| Kd [1] [nM] | Kd [2] [nM] | Binder |
| --- | --- | --- |
| 202 | 202 | NSD2 E1099K mutant protein (973-1226) (domain or fragment) KLQREARETQESERKPPPYKHIKVNKPYGKVQIYTADISEIPKCNCKPTDENPCGFDSECLNRMLMFECHPQVCPAGEFCQNQCFTKRQYPETKIIKTDGKGWGLVAKRDIRKGEFVNEYVGELIDKEECMARIKHAHENDITHFYMLTIDKDRIIDAGPKGNYSRFMNHSCQPNCETLKWTVNGDTRVGLFAVCDIPAGTELTFNYNLDCLGNEKTVCRCGASNCSGFLGDRPKTSTTLSSEEKGKKTKKKTR |
| 88 | 88 | wild-type NSD2 protein (973-1226) (domain or fragment) KLQREARETQESERKPPPYKHIKVNKPYGKVQIYTADISEIPKCNCKPTDENPCGFDSECLNRMLMFECHPQVCPAGEFCQNQCFTKRQYPETKIIKTDGKGWGLVAKRDIRKGEFVNEYVGELIDEEECMARIKHAHENDITHFYMLTIDKDRIIDAGPKGNYSRFMNHSCQPNCETLKWTVNGDTRVGLFAVCDIPAGTELTFNYNLDCLGNEKTVCRCGASNCSGFLGDRPKTSTTLSSEEKGKKTKKKTR |
| 70 | 70 | NSD2 T1150A mutant protein (973-1226) (domain or fragment) KLQREARETQESERKPPPYKHIKVNKPYGKVQIYTADISEIPKCNCKPTDENPCGFDSECLNRMLMFECHPQVCPAGEFCQNQCFTKRQYPETKIIKTDGKGWGLVAKRDIRKGEFVNEYVGELIDEEECMARIKHAHENDITHFYMLTIDKDRIIDAGPKGNYSRFMNHSCQPNCEALKWTVNGDTRVGLFAVCDIPAGTELTFNYNLDCLGNEKTVCRCGASNCSGFLGDRPKTSTTLSSEEKGKKTKKKTR |
